Results on 1 protein are retold here after article doi:10.1101/764241v3.

Substrate in the data set: O=c1ccn([C@@H]2O[C@H](COP(=O)(O)OP(=O)(O)O[C@H]3O[C@H](CO)[C@H](O)[C@H](O)[C@H]3O)[C@@H](O)[C@H]2O)c(=O)[nH]1
Kind of data set: [3H]Gal transfer, Sep-Pak C18 scintillation counting. Format: biochemical, Globisporangium ultimum. As to conditions: donor, maltose-pNP acceptor, 2 mM MnCl2, pH 7.0, 37°C.

B1: PuGat1 (Globisporangium ultimum DAOM BR144) (protein)
chain: MTVGTRRAAYATLITSDAYVMGVEALVYSLFKARVAFPLVVLHSSQVTQPTVAKLTRFCAPFQSSTWRISFRSVPDIGIPDEVTDRSTVHVPGWVNSGYTKLHIFAMDDFEQIVYIDADAIVLQNVDELFDRSTSFAAAPDVFPPDRFNAGVLVIRPNKQLFADLLAKAKELKSYDGGDTGFLNAFFPKWFESDAASRLPFGYNAQRTMYWLVNGKNPGYWNAVQPLKILHYSSNPKPWEDPSRKGDLEILWWQMYTESRCMSFLG
Regarding B1, the Michaelis-Menten constant (Km) – broadly, the concentration of substrate that gives half-maximal velocity – came to 15 µM.
